Each block holds one binder with its values, some of them ahead of it.
Target: T1, soluble ROR1 ectodomain (UniProt Q01973 30-406)
T1 construct: extracellular domain; also called ROR1-A647
Experiment: method not stated in the legend (FIGS. 1A-1C)

T1 sequence (Q01973 30-406 limits assumed): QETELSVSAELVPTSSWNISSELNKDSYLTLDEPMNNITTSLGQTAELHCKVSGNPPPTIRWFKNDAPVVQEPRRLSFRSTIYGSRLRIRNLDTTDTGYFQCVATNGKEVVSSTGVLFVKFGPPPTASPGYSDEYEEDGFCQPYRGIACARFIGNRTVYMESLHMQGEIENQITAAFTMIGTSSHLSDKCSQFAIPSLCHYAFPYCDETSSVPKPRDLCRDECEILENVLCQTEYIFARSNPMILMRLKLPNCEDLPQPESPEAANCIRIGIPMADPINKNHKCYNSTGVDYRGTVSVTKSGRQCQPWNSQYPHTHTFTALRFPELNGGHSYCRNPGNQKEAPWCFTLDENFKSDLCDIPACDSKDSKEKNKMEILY

Kd: 2 nM
B1: Nb11 WT (VHH)
VHH: QVKLVQSGGGLVQAGGSLRLSCAASGSIFSSASMGWYRQAPGKPREQVASITRDGNTYYEDDVKGRFTISRDNARSTGYLQMNSLTPEDTGVYYCNVYQLGFYDKWGQGTQVIVSS
notes: also called free Nb11

Kd: 2 nM
B2: Nb14 WT (VHH)
VHH: QVKLVQSGGGLVQTGGSLRLSCAASEITFDMYSMGWYREAPGKARDAVASITNRGNTYYADSVKGRFTISRDNAKKTMYLQMNSLKPEDTAVYYCNVYRTGFSDYWGQGTQVTVSS
notes: also called free Nb14

Source: US20240025996A1 (FRED HUTCHINSON CANCER CENTER, published 2024)
